Results as given in the DeepSol protein solubility set.

Experiment: soluble on expression in E. coli; label from the status in PepcDB or PDB records

Soluble on expression in E. coli, not soluble:
MGSDKIHHHHHHMNRMNDALELVKKLRTFLPAESVLHETEDVRPYECDGLSAYRQTPMIVALPRTEDEVAGILKICDALKIPVVARGAGTGLSGGALPHPQGVLLSLAKLKNILEIDPAARTARVQPGVRNLAISEAAAPYGLYYAPDPSSQIACSIGGNVAENSGGVHCLKYGLTVHNILKLRVLTIEGELLEMGADGLDAPGYDLLALMTGSEGMLGIVTEVTVKLTPRPEKAQVVLASFDDIRDAGNAVANVIGAGIIPAGMEMMDKITTGAVEEYVHAGYNVEAAAILLCESDGAEEEVAEEIERINEIMRQSGATEVRISRDEAERARFWAGRKAAFPAAGRVSPDYYCMDGTIPRKNLASVLTGIEALSAEYGLRCMNVFHAGDGNLHPLILYDANHPGELELTEEFGAKILRMCIEAGGTITGEHGVGIEKINQMCSQFKTGELEMFHAVKAAFDPASLLNPGKAIPTLRRCAEQGAMHVHRGKEKFPELPRF
MGSDKIHHHHHHMNRVISVGFEHPKSYLDSNQSVEAKSRIDSYIDKKMDEWNKEVVYAKHLYEPSVNKEYYKRHMIEHVWRIRMSRTVQAKALHQIAKISPEAAQLYARYQDEEMLHDILFKQDALALGVTEDTIKNTEPMFATRLLMGFKYFVAEHENPLGAVAYSYLVEYVTAKITPDQVSNLKSELGSENIKGQVAHINTDLSHDHSGDMWEIVRALLFTESDIEMFIKYIDEIQDLLAMYFKELYEKTIAKNESQAA
MGSDKIHHHHHHMNSFLDSVCALLEQGEDVVIVTIAMQSGSTPRESGAKMAVRRDGSILGTVGGGLMEAGCMELGREMLTGRFASSAAESGPELAVIRHFDLSNEEAAKAAMVCGGRLTVVAEHIQAGRRGAEVLCAARDSLLQGKACGLETTMERLEHTAAATREACFAVTGRKTPDCGHAAPAAASATLDCDGKTCRFTEWLQPSPRMIIFGAGHVALPTAAMASMTGFAVTVLDDREEFASPQRFPQARTVVLPDFGQAFAQLTITPQCYVVIMTRGHLHDKTVLEQALKTPACYVGMIGSRRKRDALYDQLRSEGVDESSIARCHCPIGLEIGARTPEEIAVSIMAEIIACRAAGNGDGAS
MGSDKIHHHHHHMNTANPEQALAMSQAKLLCDTMSTLAESPVWDERRQVLFWCDILGKTVRSAALEPGQYREWPFPHTVSSLGLRENGDLVVACGMDIVILDPDSGRTRLLHSIPAPEGIPCRLNDGRVGPDGAFWVGTMHNVPLSEMKPYGELWRITATSAKRMQTGLTCPNGLAFSPDGSIMWQSDSVQKWIRRRNFYRVNGLFDEGVLVAQMTEETGRPDGGCLDSSGTYYSAGVSAGMLNVFAEDGGKQTAAIKMPVPHPTMPCFGGPDFSTLFVTSHRHNMSAERLEQAPFSGGVWMIPTQTKGFAPFRFEG
MGSDKIHHHHHHMNTDDILFSYGEEDIPLKALSFPIFETTNFYFDSFDEMSKALRNGDYEFVYKRGSNPTTRLVEKKLAALEECEDARLVASGMSAISLSILHFLSSGDHVVCVDEAYSWAKKFFNYLSKKFDIEVSYVPPDAERIVEAITKKTKLIYLESPTSMRMKVIDIRKVTEAAGELKIKTVIDNTWASPIFQKPKLLGVDVVVHSATKYISGHGDVMAGVIAGDVEDMKNIFVDEYKNIGPVLSPIEAWLILRGLRTLELRMKKHYENALVVSDFLMDHPKVLEVNYPMNPRSPQYELASSQMSGGSGLMSFRLKTDSAEKVKEFVESLRVFRMAVSWGSHENLVVPRVAYGDCPKKDVNLIRIHVGLGDPEKLVEDLDQALKKI
MGSDKIHHHHHHMNTIYNTLRTDKGYKVYEGYLYEITGEECEEALDLVIPKNIVFADTDTCGYTFLLNEDGTVYDDVTFYKFDDKYWLASHKALDSYLDNINFDYTVTDISDEYKMLQIEGRYSGEIAQSFYEYDISTLNFRTLIEMTYKGEKGYLARFGFSGEFGYQFFLPSSIFATFVSDVCEGIAEYGDELDRYLRFEVGQPITDIYQQEEYSLYEIGYSWNLDFTKEEFRGRDSLLEHIRSATVKSVGFSTKEKLASGTPVLFDDQIVGKIFWIADEKDSSENYLGLMIVNQTYAHSGVTFVTEDGQILKTQSSPYCIPESWNKE
MGSDKIHHHHHHMNTLVDAGFSPRREGFAPQPLIEALLSILPAHCVLHREEDTRPYECDGLSLYRALPAVVALPEDEAQVRAIMQLCKRMNVPIVARGAGTGLSGGAMPHAQGVLLGLSKLNRIKRIDPAGGTAVVEPGVRNLAISEAAAPYGLYYAPDPSSQIACSIGGNVAENSGGVHCLKYGLTVHNVLRVRVVTIDGEIVELGSEAPDAPGLDLLSVFVGSEGMLGVVTEITVKLIPSPACAQVVMASFASVEAAGNAVTQIIAAGLIPAGLEMMDRQAVHMVEPFVQAGYDLQAQAILLCEADGTPQEVAHEVAMMEAVFKRAGATSLQVSGSEAERLRFWAGRKNAFPAAGRVSPDYYCMDGTIPRRHLARVLGAIEQMEDDFGLRCANVFHAGDGNLHPLILFDSNKPDEVERAEKFGAAILELCVQVGGTVTGEHGVGMEKINQMCVQFSRDELDAFLAVKRAFDPPGLLNPEKVIPTLARCAEYGKMHVHAGEMRFPDLARF
MGSDKIHHHHHHMNTNQLIEAFRKFLPAEAILHEAEDLRPYECDALSAYRQLPMIVVLPRTEAEIAAILQTCQAERIPVVARGSGTGLSGGALPHAEGVLLSLARLNHILEIDPAAGTARVQPGVRNLAISEAAAYYGMYYAPDPSSQIACSIGGNVAENSGGVHCLKYGLTVHNILRLRVLTIEGDLLEIGADALDSPGFDLLALMTGSEGMLGIVTEITVRLLPKPETVKLVMAVFDDVRKAGEAVASVIQAGIIPAGMEMMDKITIHAVEDFVHAGYDLEGAAILLCESDGMAEEVADEIERIRTILQASGATRISLAQDEAERQRFWAGRKAAFPAAGRVSPDYYCMDGTIPRKHLAHVLEQIEQLSAEYGLRCMNVFHAGDGNLHPLILYDANQPGELQKAEAFGARILEICIEAGGSLTGEHGVGIEKLNQMCLQFNDAERNRFHAIKAAFDPQSLLNPGKAIPELHRCAEFGAMHIHRGAEKFPEIPRF
MGSDKIHHHHHHMNTSGDRLRILLRECHLTATDFAANRKITPQHVNNWFKRGVPMARIDEVAELLTVNARWLRSGDGPKHPNESANENTGDDKRMAIQQTRNVLRGDVEIQIYMEVESPHGVGKTVLSEAPGQKIRLPLQVLQTMGIDPKNCMCVAMVGNSMADKIQDGSILGVDRELTQVIDGEIYALEHGGILRVRYLYRLPNGGLRLRSHNDAEYPDEVFSGEDIAREKIRILGWIFWWSTLNSRRNAMLLL
MGSDKIHHHHHHMNVFPADRIEAMHDAGLDILERLGIKVLLPEARAIFATAGAMVKDDMVYIGRDIVEASLASAPRRIEGRAGAPERDVVLELGSLVFQPGAGAPHATDEVRGRRPGCARDFKELIQLTNHFDVFHMLPPLVEPQDIATNIRHYFTLECQLTESNKFPFIFSRGTPQVTESFEMLRDFRGLSDAEFEAEPRCYTIINTNSPRTLDVPMAQGLIDFARMGQISIVTPFTLMGAMAPITVAGAITLSHAEALAAITLTQLTNPGAPVCYGTFTSNVDMKSGAPAFGTPSHFQASLAAGQLARHIGLPWRSAAGSAANLNDVQAANENQFGLWGCLMAGATVVIHSAGWLEGGLSISYEKLITDAEVLNMVAELCAGAQASDAEIGLDAIEDTAPSGHFFATAQTMARYQTEFYEPIIHDYANFGTWTERGSKDASTRARDVWQGILADPKSPTVNGDRLSALQDDIARRTQAGGAYPES
MGSDKIHHHHHHMNVPFPKRDHGGGLDAAAAEYGGDLEAWLDLSTGINPNAYPVGQLPQDIWGRLPDEGAMARLLDAARSFWSVPDGVEVIAAAGASPLIARMPDMTAFSGAYIPVPTYNEYAAAFAARGRLNDPLNPQNPVHVYVHPNNPDGRMWPGSVIGGRPLTIIDESFCDTVPDKTHMARAAEPGVIILKSFGKFWGLAGLRLGFAIAAPETFARSSSSASLQELMGPWSVSGPALEIGARALQDHAWAEATRVRLGHDAARLDDMLLSAGAEIVGGTTLFRTYAWEQGAEVWQKRLAEHRIWSRIFPYSTNWMRLGLPATDEDWARLDAAL
MGSDKIHHHHHHMNWDNARFFLALARTGTLRGAAAQLNVDQATVGRRIAALEDELSARLFLRTPALYVLTTAGEALLEPAETMERASLTIERRVMGLDEQLAGTVRIATTDSLGKRFVIPAIARLRRRHAGIDVVCVTSTEIANLTRREADLAIRTLRPESPDLIVRRLGHLETGIYASRHYLAERGEPVAGSAFDGHDLVMYQQPVMPTMWDALCGEPTSRGRVMFQTSSTMMLVEAALAGLGIAELPCFRAEAEPELVRLMARRCNHFDVWLVAHADLYKTARVQAVIEAVVEEFATAAPSTR
MGSDKIHHHHHHMNYSHFVGLDVGKKTFDASLMSADEKELSHKSFDNTPTGIQSLLDWIAGYHLSLSKLLFCAENMGSYVTELSVSSVSMGFSLALVCPLTIKKSIGLQRGKNDRIDAKRIANYAVLHYRKLELYKLPDKDLVRLRGWIIIRDNLVKQKVSSIKLLETFSWMAKLADVTESISFLEEQLKSIKERILEVEEDMEQLIAASTSLYTNYLLLRSIKGIGIINAIVLLCVTDNFQRFDNPRKFACYCGVAPFEHTSGISIRGKTQTSSLANKEVKVYLTRAAITAISWDPQMKAYYKRKIAEGKHKASVINAVRAKIIARSFAVIRRQTPFVTLAV
MGSDKIHHHHHHMPAALPIKPPFKPRDISIVGAGVAGASLALSLLRRGHKVTLYCADAAPGIGASGNRQGAIYPLLTPEDDHLTRLFVPAFLYAKRFVESLAHHPLPFDFCGVLQTGHDERATERIEKLLSKTWPKQVAVRVDADEANHIAGVAIDKGGIYYPQGGWVSPAKLCEAAIEEAKTMGLECHFDVNITSITRADEGWRLNTQTGEIDAHELVLATGHRITELAQTKSLQLAPFRGQVSHVPTRGKLEQLKTVLCAHGYFTPRDASSGSHCMGASYVRGDTSVEYREQEQQENLHKMQESYPGKDWVEYLDISEGSARAGIRMVSRDHLPMAGAAPDVAAIQTQYQAIGHGPKGAQYWQTHAAPVHPGLYIFSGLGSRGLSSGPLIAECLADSLSGTLPVLDGDVMEALNPNRMWLRKLKKGKALD
MGSDKIHHHHHHMPASKIYLLDYGWLGGDIGWFLPGQLGGAMTNSERNPRRDWVEIPITGALIDHPDARILFDTGIAPDAMKTHERGLMEAFPITKMDDQNHIENQLKLIGLKPEDIDFVVISHLHLDHIGQAAVFKDSHVPIIVQKKELESALSLIWQGKSGAYDYSDLLPLKGAAWMPLDDPVFEIVDGVYAEFTGGHTAGHQVLTVKTEKGSMYTLTGDFLHLPKEYDVEAKGWLLSNATEWNSYIKKMKIREKARKQKLIISHDPGIWDKYPHAPKFVE
MGSDKIHHHHHHMPDKSLKKPFVHLIGAGPGDPGLITVKGRESLGRADVVIYDYLANDDLLRFARPDAELIYAGKIGGHHNREQWQINALLVEKALAGNVVARLKGGDSFVFGRGGEECEALVAAGIPFEIVPGVTAGIGVTAYAGIPLTHRGVTTSVTFVTGHEGHDKEVSQIDWEGLSLGSGTVVFYMGIKNLPQITANLMAHGRPPETPVALIRWGTRPEQEVLTGTLADIAEQARRTGFRAPAITVVGEVVRLREKLRWFDNRPLFGTSILVTRAADQAGEFGAMLGALGARVLECPTIAIVPPESWDNLDAAIASLDRFHWAVFTSVNAVRFFFERLAAAGKDSRALGNCRVCAVGPKTAAALAPFGIRPDLIPADYKGEGVVEVFRSEEIAGKRIIFPKGDRARDVIPQGLAELGGEVTAPVAYRNVTPDSLPAGVIAELEERRITCVTFTSSSTVENLAAILGENRFLHLLKGVTIAAIGPITARTCRELGLEVHVEPSKYTLAAMTDALVDFFSRSK
